Measured values taken from patent US20240010750A1 (Bayer, published 2024).
Like-named read-outs stand apart in the source and are kept apart here.

T1: human alpha2-Antiplasmin (human, UniProt P08697 40-491)
T1 sequence: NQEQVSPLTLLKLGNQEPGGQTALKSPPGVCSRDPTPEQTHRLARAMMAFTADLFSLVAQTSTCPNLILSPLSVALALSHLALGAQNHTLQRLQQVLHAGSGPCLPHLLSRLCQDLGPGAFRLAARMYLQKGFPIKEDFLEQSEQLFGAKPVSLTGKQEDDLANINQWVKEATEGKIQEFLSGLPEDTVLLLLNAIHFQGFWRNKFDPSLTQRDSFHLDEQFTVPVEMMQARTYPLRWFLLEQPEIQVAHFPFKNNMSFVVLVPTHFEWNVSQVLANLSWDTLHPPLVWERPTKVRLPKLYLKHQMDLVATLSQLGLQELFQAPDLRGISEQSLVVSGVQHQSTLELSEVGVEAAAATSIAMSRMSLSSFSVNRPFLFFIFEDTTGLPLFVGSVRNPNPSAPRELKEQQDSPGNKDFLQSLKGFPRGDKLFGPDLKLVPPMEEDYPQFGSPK

T2: rabbit alpha2-Antiplasmin (rabbit (Oryctolagus cuniculus))
T2 construct: Made in house in HEK293 cells, purified by Ni-IMAC and SEC (a His tag is implied but not described); also called rabbit A2AP; Oryctolagus cuniculus A2AP
T2 chain: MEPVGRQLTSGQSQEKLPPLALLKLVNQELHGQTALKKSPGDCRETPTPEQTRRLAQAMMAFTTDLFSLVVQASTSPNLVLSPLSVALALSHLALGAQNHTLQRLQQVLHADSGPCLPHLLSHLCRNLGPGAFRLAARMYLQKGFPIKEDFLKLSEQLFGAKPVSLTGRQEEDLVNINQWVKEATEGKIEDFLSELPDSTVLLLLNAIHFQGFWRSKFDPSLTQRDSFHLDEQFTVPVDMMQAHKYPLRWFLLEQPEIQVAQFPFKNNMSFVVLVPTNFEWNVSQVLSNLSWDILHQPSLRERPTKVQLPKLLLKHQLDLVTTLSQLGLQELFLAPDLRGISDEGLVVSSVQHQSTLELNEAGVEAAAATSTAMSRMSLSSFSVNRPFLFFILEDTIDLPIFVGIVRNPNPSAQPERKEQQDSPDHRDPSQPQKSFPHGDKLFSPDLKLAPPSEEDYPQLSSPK

T3: cynomolgus alpha2-Antiplasmin (cynomolgus (Macaca fascicularis), UniProt P08697 28-491 (human entry))
T3 construct: Made in house in the same way as the rabbit protein; also called cynomolgus A2AP; Macaca fascicularis A2AP
T3 chain: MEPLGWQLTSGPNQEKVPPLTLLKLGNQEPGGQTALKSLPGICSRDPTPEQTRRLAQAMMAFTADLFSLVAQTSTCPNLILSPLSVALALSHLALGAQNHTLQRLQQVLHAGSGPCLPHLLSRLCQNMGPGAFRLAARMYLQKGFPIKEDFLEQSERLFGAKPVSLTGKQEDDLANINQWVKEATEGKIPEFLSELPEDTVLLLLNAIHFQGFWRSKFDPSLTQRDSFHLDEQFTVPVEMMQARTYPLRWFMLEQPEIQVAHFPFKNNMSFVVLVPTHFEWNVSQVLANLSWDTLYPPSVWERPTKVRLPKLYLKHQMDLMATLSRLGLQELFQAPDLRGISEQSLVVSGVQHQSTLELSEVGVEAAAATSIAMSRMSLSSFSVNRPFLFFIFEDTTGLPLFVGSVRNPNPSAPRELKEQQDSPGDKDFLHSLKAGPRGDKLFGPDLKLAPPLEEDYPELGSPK


Legend:
human alpha2-Antiplasmin [1] = target: T1, human alpha2-Antiplasmin; experiment: cell-based or functional assay
human alpha2-Antiplasmin [2] = target: T1, human alpha2-Antiplasmin; experiment: cell-based or functional assay; remark: listed apart in the source
human alpha2-Antiplasmin [3] = target: T1, human alpha2-Antiplasmin; experiment: ELISA, coated antigen, 2nd exp.
Procedure: (§1) A standard ELISA format was used for analyzing the binding affinity of Fabs of this invention to human and rabbit alpha-2-Antiplasmin, respectively. Antigens were coated to black 384 well Maxisorp microtiter plates (Nunc; catalogue number 460518), diluted to a concentration of 1 μg/ml in 1× Coating Buffer (Candor Bioscience; catalogue number 121125). Plates were incubated overnight at 4° C. After overnight incubation, plates were washed 2× with 50 μl/well using PBS+0.05% Tween 20. Following this, 50 μl/well of blocking buffer (Smart Block; Candor Bioscience; catalogue number 113500) was added and the plates were incubated for 1 hour at room temperature. Afterwards, plates were washed for 3× using […] PBS+0.05% Tween 20 buffer. Fabs of this invention were added at different concentrations in a final volume of 30 μl/well. Plates were incubated for 1 hour at room temperature. Following this incubation step, plates were washed for 3× using 50 μl/well of a PBS+0.05% Tween 20 buffer. For the detection of bound Fabs and full-length antibodies, the anti-Human Lambda Light Chains (Bound and Free)—Peroxidase antibody (Sigma; catalogue number A5175) was diluted by the factor of 1:10.000 in 10% Blocking Buffer. 30 μl/well of this diluted detection antibody was added and plates are incubated for 1 hour at room temperature. Following this incubation step, plates were washed for 3× using 50 μl/well of a PBS+0.05% Tween 20 buffer. As substrate, a mixture of 30 μl/well of 1:1000 diluted Amplex red (Invitrogen; catalogue number 12222; stock solution 10 mM in DMSO) and 1:10.000 of Hydrogen peroxide (Merck; catalogue number 107209; 30% stock solution) was added and the plates incubated for minutes in the dark.
(§2) For measurement, the Infinite f500 reader (Tecan) was used. Measurement mode: Fluorescence; Top reading; Ex 535 nm; Em 590 nm.
(§3) According to the methods described in Example 3 and Example 4, antibodies TPP-14323, TPP-14318, TPP-14314, TPP-14313, TPP-14308, TPP-14305, TPP-14303, TPP-14298, and TPP-14293 were tested for their ability to bind to and to block the activity of human alpha2-Antiplasmin in a dose-dependent manner. For each antibody, one dose response curve from two to three independent experiments performed in quadruplicate is shown as example in FIG. 7.1 to FIG. 7.18. (see Table 3.3)

human alpha2-Antiplasmin [4] = target: T1, human alpha2-Antiplasmin; experiment: ELISA, coated antigen, 1st exp.
Procedure: as §1, §2, §3

human alpha2-Antiplasmin [5] = target: T1, human alpha2-Antiplasmin; experiment: ELISA, coated antigen, 3rd exp.
Procedure: as §1, §2, §3

human Plasmin = human Plasmin (human, UniProt P00747 97-580; P00747 581-810, limits assumed); experiment: cell-based or functional assay
human Plasmin, sequence (P00747 97-580 limits assumed, chain 1 of 2): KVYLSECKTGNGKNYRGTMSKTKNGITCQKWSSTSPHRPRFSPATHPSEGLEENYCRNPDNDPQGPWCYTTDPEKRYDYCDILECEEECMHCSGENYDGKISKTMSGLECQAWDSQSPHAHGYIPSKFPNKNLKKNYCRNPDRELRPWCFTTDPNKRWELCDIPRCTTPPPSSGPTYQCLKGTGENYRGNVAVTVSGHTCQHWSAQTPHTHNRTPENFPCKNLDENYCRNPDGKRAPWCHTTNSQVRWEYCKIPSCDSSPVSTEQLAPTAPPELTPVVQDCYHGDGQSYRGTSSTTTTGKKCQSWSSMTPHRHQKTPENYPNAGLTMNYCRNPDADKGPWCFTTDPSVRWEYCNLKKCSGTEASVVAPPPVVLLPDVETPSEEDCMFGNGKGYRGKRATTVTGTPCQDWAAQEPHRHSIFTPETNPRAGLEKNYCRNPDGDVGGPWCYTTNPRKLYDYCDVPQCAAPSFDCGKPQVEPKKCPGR
human Plasmin, sequence (P00747 581-810 limits assumed, chain 2 of 2): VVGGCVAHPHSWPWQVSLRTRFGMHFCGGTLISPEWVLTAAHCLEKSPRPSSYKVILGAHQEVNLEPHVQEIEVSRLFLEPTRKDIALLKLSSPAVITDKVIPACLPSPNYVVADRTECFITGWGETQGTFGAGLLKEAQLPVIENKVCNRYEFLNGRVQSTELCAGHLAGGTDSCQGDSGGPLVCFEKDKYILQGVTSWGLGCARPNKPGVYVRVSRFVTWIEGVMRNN

human alpha2-Antiplasmin [6] = target: T1, human alpha2-Antiplasmin; experiment: cell-based or functional assay; remark: listed apart in the source
[7] = target: T2, rabbit alpha2-Antiplasmin; experiment: SPR Biacore T200, antibody captured on protein G chip, A2AP as analyte, 25 C
Procedure: (§4) Binding assays were performed on a Biacore T200 instrument at 25° C. with a protein G sensor chip and assay buffer HBS-EP+. Antibodies were captured to ˜150 RU and analytes were used at concentrations between 1.56 and 200 nM for full kinetics. As interaction partner, alpha2-Antiplasmin from human, cynomolgus and rabbit was used. Regeneration was performed with glycine-HCl pH 1.5. Kinetic parameters were derived by fitting experimental sensorgrams to a 1:1 Langmuir binding model.

[8] = target: T3, cynomolgus alpha2-Antiplasmin; experiment: as above
Procedure: as §4

human alpha2-Antiplasmin [9] = target: T1, human alpha2-Antiplasmin; experiment: as above
Procedure: as §4

human alpha2-Antiplasmin [10] = target: T1, human alpha2-Antiplasmin; experiment: cell-based or functional assay; remark: listed apart in the source
human alpha2-Antiplasmin [11] = target: T1, human alpha2-Antiplasmin; experiment: ELISA, coated antigen, quantified unpurified antibody, 2nd exp.
human alpha2-Antiplasmin [12] = target: T1, human alpha2-Antiplasmin; experiment: ELISA, coated antigen, quantified unpurified antibody, 1st exp.
human alpha2-Antiplasmin [13] = target: T1, human alpha2-Antiplasmin; experiment: ELISA, coated antigen, quantified unpurified antibody, 3rd exp.
Procedure: as §1, §2

human alpha2-Antiplasmin [14] = target: T1, human alpha2-Antiplasmin; experiment: ELISA (Example 3), human alpha2-Antiplasmin coated, RFU
Procedure: as §1, with “As substrate, a mixture of 30 μl/well of 1:1000 diluted Amplex red (Invitrogen; catalogue number 12222; stock solution 10 mM in DMSO) and 1:10.000 of Hydrogen peroxide (Merck; catalogue number 107209; 30% stock solution) was added and the plates incubated for minutes in the dark.” left out
as §2
According to the method described in Example 3, these 12 antibodies were tested for ability to bind human and rabbit alpha2-Antiplasmin in a dose-dependent manner. Data generated were analyzed using the GraphPadPrism software. The binding activities of the antibodies were calculated as EC50 values. […]

human alpha2-Antiplasmin [15] = target: T1, human alpha2-Antiplasmin; experiment: cell-based or functional assay; remark: listed apart in the source
human alpha2-Antiplasmin [16] = target: T1, human alpha2-Antiplasmin; experiment: ELISA, coated antigen, 3rd exp.; 3rd exp.
Procedure: as §1, with “30 μl/well of this diluted detection antibody was added and plates are incubated for 1 hour at room temperature. Following this incubation step, plates were washed for 3× using 50 μl/well of a PBS+0.05% Tween 20 buffer. As substrate, a mixture of 30 μl/well of 1:1000 diluted Amplex red (Invitrogen; catalogue number 12222; stock solution 10 mM in DMSO) and 1:10.000 of Hydrogen peroxide (Merck; catalogue number 107209; 30% stock solution) was added and the plates incubated for minutes in the dark.” left out
(§5) For measurement, the Infinite f500 reader (Tecan) was used. Measurement mode: Fluorescence; Top reading; Ex 535 nm; Em 590 nm. […]

human alpha2-Antiplasmin [17] = target: T1, human alpha2-Antiplasmin; experiment: cell-based or functional assay; remark: listed apart in the source
human alpha2-Antiplasmin [18] = target: T1, human alpha2-Antiplasmin; experiment: ELISA, coated antigen, 1st exp.; 1st exp.
Procedure: as §1, with “30 μl/well of this diluted detection antibody was added and plates are incubated for 1 hour at room temperature. Following this incubation step, plates were washed for 3× using 50 μl/well of a PBS+0.05% Tween 20 buffer. As substrate, a mixture of 30 μl/well of 1:1000 diluted Amplex red (Invitrogen; catalogue number 12222; stock solution 10 mM in DMSO) and 1:10.000 of Hydrogen peroxide (Merck; catalogue number 107209; 30% stock solution) was added and the plates incubated for minutes in the dark.” left out
as §5

human alpha2-Antiplasmin [19] = target: T1, human alpha2-Antiplasmin; experiment: cell-based or functional assay; remark: listed apart in the source

Row | Binder | function blocking activity [IC50 M], 1st exp. (human alpha2-Antiplasmin [2]) [nM] | function blocking activity [IC50 M], 2nd exp. (human alpha2-Antiplasmin [2]) [nM] | function blocking activity [IC50 M], 3rd exp. (human alpha2-Antiplasmin [2]) [nM] | EC50 (human alpha2-Antiplasmin [3]) [nM] | EC50 (human alpha2-Antiplasmin [4]) [nM] | EC50 (human alpha2-Antiplasmin [5]) [nM] | IC50 [M], inhibition of plasmin proteolytic activity (human Plasmin) [M] | other results
1 | TPP-14293 hIgG1 (antibody, V domains shown) VH: EVQLLESGGGLVQPGGSLRLSCAASGFTFDDYAMSWVRQAPGKGLEWVSAIGTGGGTYYADSVKGRFTISRDNSKNTLYLQMNSLRAEDTAVYYCDREYYDSSGYYHLDYWGQGTLVTVSS VL: QSVLTQPPSASGTPGQRVTISCTGSSSNIGATYDVHWYQQLPGTAPKLLIYSNNQRPSGVPDRFSGSKSGTSASLAISGLRSEDEADYYCAAWDWSLSGWVFGGGTKLTVLG | 46 | 48 | 50 | 12 | 12 | 12 | > 5e-06 | EC50 (read off the curve); function blocking assay (Example 4), RFU of plasmin substrate cleavage (human alpha2-Antiplasmin [1]): ~50 nM
2 | TPP-17053 hIgG1 (antibody, V domains shown, Germline variant of TPP-14308) VH: EVQLLESGGGLVQPGGSLRLSCAASGFTFDDYAMSWVRQAPGKGLEWVSAIGSGGSTYYADSVKGRFTISRDNSKNTLYLQMNSLRAEDTAVYYCAREGYDSSGYYHLDYWGQGTLVTVSS VL: QSVLTQPPSASGTPGQRVTISCTGSSSNIGATYDVHWYQQLPGTAPKLLIYSNNQRPSGVPDRFSGSKSGTSASLAISGLRSEDEADYYCAAWDWSLSGWVFGGGTKLTVLG | – | – | – | – | – | – | > 1e-05 | IC50, A2AP function blocking assay (Example 10) (human alpha2-Antiplasmin [6]): 0.15 nM; Kd [7]: 28 nM; Kd [8]: 8.7 nM; Kd (human alpha2-Antiplasmin [9]): 11 nM; EC50 (read off the curve); function blocking assay (Example 4), RFU of plasmin substrate cleavage (human alpha2-Antiplasmin [10]): ~0.4 nM; EC50 (human alpha2-Antiplasmin [11]): 0.58 nM; EC50 (human alpha2-Antiplasmin [12]): 0.52 nM; EC50 (human alpha2-Antiplasmin [13]): 0.63 nM; EC50 (read off the curve) (human alpha2-Antiplasmin [14]): ~0.5 nM; function blocking activity [IC50 M], 1st exp. (human alpha2-Antiplasmin [15]): 0.43 nM; function blocking activity [IC50 M], 2nd exp. (human alpha2-Antiplasmin [15]): 0.65 nM; function blocking activity [IC50 M], 3rd exp. (human alpha2-Antiplasmin [15]): 0.5 nM
3 | TPP-14303 hIgG1 (antibody, V domains shown) VH: EVQLLESGGGLVQPGGSLRLSCAASGFTFDDYAMSWVRQAPGKGLEWVSAIGTGGGTYYADSVKGRFTISRDNSKNTLYLQMNSLRAEDTAVYYCAREDYDSSGYYHLDYWGQGTLVTVSS VL: QSVLTQPPSASGTPGQRVTISCTGSSSNIGATYDVHWYQQLPGTAPKLLIYSNNQRPSGVPDRFSGSKSGTSASLAISGLRSEDEADYYCAAWDWSLSGWVFGGGTKLTVLG | 85 | 89 | 94 | 29 | 24 | – | > 1e-05 | EC50 (human alpha2-Antiplasmin [16]): 27 nM; EC50 (read off the curve); function blocking assay (Example 4), RFU of plasmin substrate cleavage (human alpha2-Antiplasmin [17]): ~80 nM
4 | TPP-14298 hIgG1 (antibody, V domains shown) VH: EVQLLESGGGLVQPGGSLRLSCAASGFTFDDYAMSWVRQAPGKGLEWVSAIGTGGGTYYADSVKGRFTISRDNSKNTLYLQMNSLRAEDTAVYYCASEYYDSSGYYHLDYWGQGTLVTVSS VL: QSVLTQPPSASGTPGQRVTISCTGSSSNIGATYDVHWYQQLPGTAPKLLIYSNNQRPSGVPDRFSGSKSGTSASLAISGLRSEDEADYYCAAWDWSLSGWVFGGGTKLTVLG | 31 | 37 | 40 | 62 | – | 58 | > 5e-06 | EC50 (human alpha2-Antiplasmin [18]): 5.7 nM; EC50 (read off the curve); function blocking assay (Example 4), RFU of plasmin substrate cleavage (human alpha2-Antiplasmin [19]): ~30 nM
